Target: T1, MEX-5 (UniProt Q9XUB2 Q9XUB2:236-350)
T1 sequence: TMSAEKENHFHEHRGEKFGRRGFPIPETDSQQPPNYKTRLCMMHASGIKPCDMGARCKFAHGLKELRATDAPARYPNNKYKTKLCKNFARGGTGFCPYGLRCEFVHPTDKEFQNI
Assay: FP; 120 nM protein, 2 nM RNA, 100 uM zinc acetate, 20-50 mM Tris pH 8.0, 40-100 mM NaCl, tRNA; Z-value 0.8-0.9; also by gel shift; small-molecule inhibition of complex measured
Conditions: tags: N-terminal MBP fusion (pMal-c, NEB); HTS paragraph says C-terminal fusion to MBP; from Open Biosystems ORFeome clone; label: 3'-fluorescein (FITC)

B1: TCR2 RNA (ssRNA)
RNA: UUUCUUUAUAACUUGUUACAAUUUUUGAAA
Does B1 bind?
Result: binds

Reference: patent publication US20110077250, “COMPOUNDS FOR MODULATING RNA BINDING PROTEINS AND USES THEREFOR” (published 2011)
